From the supplement of paper PMC10567573

B1: SNAP91 (parent)
chain: FSTDAFSSPPQGASPVPESSLTAD

Variants of: B1
Assay: protein stability index of a GFP-peptide fusion (GPS, HEK-293T) (PSI 1-6); higher = more stable
Details: c terminus: a fixed tail appended
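Also: lentivirally expressed fusions sorted by FACS into six bins by GFP to DsRed ratio, PSI derived from sequencing read proportions per bin multiplied by bin number.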

Variant | protein stability index
P10I | 2.42
P10R | 2.55
P10W | 1.72
P10T | 2.73
P10A | 3.09
P10Y | 2.18
P10L | 3.38
P10M | 2.29
P10Q | 3.24
P10S | 2.71
P10N | 2.64
P10G | 2.69
P10C | 2.8
P10K | 3.16
P10H | 2.29
P10V | 2.73
P10D | 3.61
P10F | 2.28
P10E | 3.23
V16A | 3.6
V16L | 2.83
V16S | 2.96
V16Y | 2.96
V16M | 2.68

Variant | protein stability index
V16N | 3.31
V16I | 3.29
V16C | 2.67
V16E | 4
V16R | 3.22
V16D | 3.12
V16H | 3.17
V16F | 2.7
V16Q | 3.33
V16W | 2.21
V16K | 2.96
V16T | 2.96
V16G | 3.66
P15S | 3.03
P15K | 2.43
P15H | 3.5
P15Y | 2.44
P15N | 3.12
P15L | 2.64
P15M | 2.72
P15D | 3.27
P15R | 2.97
P15I | 2.67
P15A | 3.25

Variant | protein stability index
P15E | 3.6
P15V | 3.05
P15Q | 3.17
P15G | 2.83
P15W | 2.37
P15C | 2.78
P15T | 3.17
P15F | 2.57
P9F | 2.46
P9G | 2.76
P9I | 2.43
P9M | 2.16
P9Q | 3.02
P9K | 2.92
P9V | 2.74
P9S | 3.74
P9H | 2.89
P9Y | 2.45
P9W | 2.24
P9L | 2.65
P9E | 4.35
P9D | 3.96
P9T | 2.85
P9R | 2.91

Variant | protein stability index
P9N | 3.13
P17S | 3.86
P17M | 3.13
P17I | 3.04
P17Q | 3.21
P17Y | 2.69
P17W | 2.41
P17N | 3.52
P17K | 2.9
P17T | 2.83
P17E | 3.89
P17F | 2.86
P17R | 3.31
P17V | 3.25
P17A | 3.79
P17H | 3.85
P17C | 3.01
P17G | 3.66
P17D | 4.14
P17L | 3.23
G12E | 3.58
G12Y | 2.44
G12Q | 3.35
G12L | 2.75

Variant | protein stability index
G12S | 2.79
G12N | 3.08
G12C | 2.62
G12V | 2.92
G12I | 2.68
G12H | 2.63
G12T | 3.5
G12K | 2.73
G12P | 2.93
G12F | 2.6
G12R | 3.11
G12W | 2.32
G12M | 2.58
G12A | 3.39
G12D | 3.52
S14W | 2.69
S14Q | 2.75
S14K | 2.9
S14A | 3.57
S14D | 3.62
S14E | 3.27
S14F | 2.54
S14C | 3
S14V | 2.63

Variant | protein stability index
S14M | 2.95
S14H | 3.06
S14Y | 2.84
S14R | 2.88
S14N | 3
S14T | 3.29
S14G | 3.3
S14I | 2.89
S14L | 3.22
A13S | 3.54
A13I | 2.52
A13N | 3.51
A13D | 3.45
A13Q | 3.11
A13P | 2.72
A13G | 2.99
A13K | 2.47
A13L | 2.82
A13C | 2.69
A13R | 2.77
A13Y | 2.85
A13V | 2.75
A13M | 2.93
A13W | 2.72

Variant | protein stability index
A13F | 2.54
A13E | 3.22
A13H | 3.16
A13T | 3.47
Q11I | 3.25
Q11L | 2.74
Q11M | 2.69
Q11D | 4.01
Q11H | 3.43
Q11T | 3.75
Q11F | 2.68
Q11C | 2.56
Q11K | 2.68
Q11N | 3.13
Q11A | 3.33
Q11P | 3.27
Q11S | 4.17
Q11Y | 2.22
Q11W | 2.2
Q11E | 3.9
Q11R | 3.06
Q11V | 2.88
Q11G | 3.34
